Test results: the supplement of paper PMC6755084

B1: F1*; the commonest letter at each place (parent)
chain: GAGACCGCAACTGAAAAGTTGTTATCACTTGTCGTAAGACACTTTGGATGGGTTGAAGTTCTGCACGTAGAAGCAAAAGGC

Variants of: B1
Assay: fraction ligated after 30 min (ligated reads / total reads); higher = more ligase activity
Conditions: with F1*sub RNA substrate (template-directed ligation), 42 °C
Summary of the method: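 Oligo-pool templates of ligase ribozyme variants were PCR-amplified, T7-transcribed and gel-purified. Ligated and unligated bands were gel-separated, reverse transcribed with barcoded primers, and MiSeq-sequenced; core bases were filtered at quality ≥20. Fraction ligated per variant was ligated reads over total reads.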

Compared with GAGACCGCAACTGAAAAGTTGTTATCACCTGTCGTAAGACACGTTGGATGGGTTGAAGTTCTGCACGTAGAAGCAAAAGGC [T29C T43G], GAGACCGCAACTGAAAAGTTGTTATCACCTGTCGTAAGACACTATGGATGGGTTGAAGTTCTGCACGTAGAAGCAAAAGGC [T29C T44A] is lower in fraction ligated: 0.815 for the first, 0.802 for the second.

Compared with GAGACCGCAACTGAAAAGTTGTTATCACCTGTCGTAAGACACTCTGGATGGGTTGAAGTTCTGCACGTAGAAGCAAAAGGC [T29C T44C], GAGACCGCAACTGAAAAGTTGTTATCACCTGTCGTAAGACACTGTGGATGGGTTGAAGTTCTGCACGTAGAAGCAAAAGGC [T29C T44G] is higher in fraction ligated: 0.822 for the first, 0.848 for the second.

First: GAGACCGCAACTGAAAAGTTGTTATCACCTGTCGTAAGACACTTAGGATGGGTTGAAGTTCTGCACGTAGAAGCAAAAGGC [T29C T45A]
Second: GAGACCGCAACTGAAAAGTTGTTATCACCTGTCGTAAGACACTTCGGATGGGTTGAAGTTCTGCACGTAGAAGCAAAAGGC [T29C T45C]
The fraction ligated of the first is higher: 0.554 for the first, 0.471 for the second.

Going from GAGACCGCAACTGAAAAGTTGTTATCACCTGTCGTAAGACACTTGGGATGGGTTGAAGTTCTGCACGTAGAAGCAAAAGGC [T29C T45G] to GAGACCGCAACTGAAAAGTTGTTATCACCTGTCGTAAGACACTTTGGAAGGGTTGAAGTTCTGCACGTAGAAGCAAAAGGC [T29C T49A], the fraction ligated rises from 0.239 to 0.62.

Compared with GAGACCGCAACTGAAAAGTTGTTATCACCTGTCGTAAGACACTTTGGACGGGTTGAAGTTCTGCACGTAGAAGCAAAAGGC [T29C T49C], GAGACCGCAACTGAAAAGTTGTTATCACCTGTCGTAAGACACTTTGGAGGGGTTGAAGTTCTGCACGTAGAAGCAAAAGGC [T29C T49G] is higher in fraction ligated: 0.104 for the first, 0.66 for the second.

First: GAGACCGCAACTGAAAAGTTGTTATCACGTGTCGTAAGACACTTTGGATGGGTTGAAGTTCTGCACGTAGAAGCAAAAGGC [T29G]
Second: GAGACCGCAACTGAAAAGTTGTTATCACGTGTCGTCAGACACTTTGGATGGGTTGAAGTTCTGCACGTAGAAGCAAAAGGC [T29G A36C]
The fraction ligated of the first is higher: 0.829 for the first, 0.825 for the second.

Going from GAGACCGCAACTGAAAAGTTGTTATCACGTGTCGTGAGACACTTTGGATGGGTTGAAGTTCTGCACGTAGAAGCAAAAGGC [T29G A36G] to GAGACCGCAACTGAAAAGTTGTTATCACGTGTCGTTAGACACTTTGGATGGGTTGAAGTTCTGCACGTAGAAGCAAAAGGC [T29G A36T], the fraction ligated rises from 0.823 to 0.826.

Compared with GAGACCGCAACTGAAAAGTTGTTATCACGTGTCGTACGACACTTTGGATGGGTTGAAGTTCTGCACGTAGAAGCAAAAGGC [T29G A37C], GAGACCGCAACTGAAAAGTTGTTATCACGTGTCGTAGGACACTTTGGATGGGTTGAAGTTCTGCACGTAGAAGCAAAAGGC [T29G A37G] is higher in fraction ligated: 0.814 for the first, 0.832 for the second.

Compared with GAGACCGCAACTGAAAAGTTGTTATCACGTGTCGTATGACACTTTGGATGGGTTGAAGTTCTGCACGTAGAAGCAAAAGGC [T29G A37T], GAGACCGCAACTGAAAAGTTGTTATCACGTGTCGTAAGCCACTTTGGATGGGTTGAAGTTCTGCACGTAGAAGCAAAAGGC [T29G A39C] is lower in fraction ligated: 0.828 for the first, 0.822 for the second.

First: GAGACCGCAACTGAAAAGTTGTTATCACGTGTCGTAAGGCACTTTGGATGGGTTGAAGTTCTGCACGTAGAAGCAAAAGGC [T29G A39G]
Second: GAGACCGCAACTGAAAAGTTGTTATCACGTGTCGTAAGTCACTTTGGATGGGTTGAAGTTCTGCACGTAGAAGCAAAAGGC [T29G A39T]
The fraction ligated of the first is lower: 0.819 for the first, 0.822 for the second.

First: GAGACCGCAACTGAAAAGTTGTTATCACGTGTCGTAAGACCCTTTGGATGGGTTGAAGTTCTGCACGTAGAAGCAAAAGGC [T29G A41C]
Second: GAGACCGCAACTGAAAAGTTGTTATCACGTGTCGTAAGACGCTTTGGATGGGTTGAAGTTCTGCACGTAGAAGCAAAAGGC [T29G A41G]
The fraction ligated of the first is higher: 0.83 for the first, 0.815 for the second.

First: GAGACCGCAACTGAAAAGTTGTTATCACGTGTCGTAAGACTCTTTGGATGGGTTGAAGTTCTGCACGTAGAAGCAAAAGGC [T29G A41T]
Second: GAGACCGCAACTGAAAAGTTGTTATCACGTGTCGTAAGACACTTTGGCTGGGTTGAAGTTCTGCACGTAGAAGCAAAAGGC [T29G A48C]
The fraction ligated of the first is higher: 0.833 for the first, 0.756 for the second.

First: GAGACCGCAACTGAAAAGTTGTTATCACGTGTCGTAAGACACTTTGGGTGGGTTGAAGTTCTGCACGTAGAAGCAAAAGGC [T29G A48G]
Second: GAGACCGCAACTGAAAAGTTGTTATCACGTGTCGTAAGACACTTTGGTTGGGTTGAAGTTCTGCACGTAGAAGCAAAAGGC [T29G A48T]
The fraction ligated of the first is higher: 0.805 for the first, 0.773 for the second.

First: GAGACCGCAACTGAAAAGTTGTTATCACGTGTCGTAAGACACTTTGGATGGGTTGCAGTTCTGCACGTAGAAGCAAAAGGC [T29G A56C]
Second: GAGACCGCAACTGAAAAGTTGTTATCACGTGTCGTAAGACACTTTGGATGGGTTGGAGTTCTGCACGTAGAAGCAAAAGGC [T29G A56G]
The fraction ligated of the first is higher: 0.787 for the first, 0.749 for the second.

First: GAGACCGCAACTGAAAAGTTGTTATCACGTGTCGTAAGACACTTTGGATGGGTTGTAGTTCTGCACGTAGAAGCAAAAGGC [T29G A56T]
Second: GAGACCGCAACTGAAAAGTTGTTATCACGTGTCGTAAGACACTTTGGATGGGTTGACGTTCTGCACGTAGAAGCAAAAGGC [T29G A57C]
The fraction ligated of the first is higher: 0.793 for the first, 0.765 for the second.

Compared with GAGACCGCAACTGAAAAGTTGTTATCACGTGTCGTAAGACACTTTGGATGGGTTGAGGTTCTGCACGTAGAAGCAAAAGGC [T29G A57G], GAGACCGCAACTGAAAAGTTGTTATCACGTGTCGTAAGACACTTTGGATGGGTTGATGTTCTGCACGTAGAAGCAAAAGGC [T29G A57T] is higher in fraction ligated: 0.776 for the first, 0.811 for the second.

Going from GAGACCGCAACTGAAAAGTTGTTATCACGTGTAGTAAGACACTTTGGATGGGTTGAAGTTCTGCACGTAGAAGCAAAAGGC [T29G C33A] to GAGACCGCAACTGAAAAGTTGTTATCACGTGTGGTAAGACACTTTGGATGGGTTGAAGTTCTGCACGTAGAAGCAAAAGGC [T29G C33G], the fraction ligated rises from 0.85 to 0.865.
